Target: Dob3 (Nocardia ninae)
Assay: SEC; Superdex 200, 20 mM HEPES pH 8.0, 10 mM MgCl2, 50 mM NaCl, 10% glycerol; compared with Bio-Rad gel filtration standards

stoichiometry N: 2
Substance: Dob3 (enzyme)
